Experimental findings from patent publication US6518063, “Osf2/Cbfa1 nucleic acids and methods of use therefor” (Board of Regents, The University of Texas System) are described below.

In data set [1] the target is T1, Osf2/Cbfa1 (Mus musculus, UniProt Q08775 SEQ:1-528). The experiment in a line: cell_activity; p6OSE2-luc (6 copies), F9 cells. The conditions noted are these: tags: pCMV5 expression. As for the experimental part: After transfection the cells were washed twice with PBS (150 mM NaCl, 10 mM sodium phosphate [pH 7.2]), and regular medium was added for 24 h. Cells were harvested and lysed by three cycles of freeze-thawing. β-galactosidase activities present in each lysate, measured by a colorimetric enzyme assay (Ausubel et al., 1997) using resorufin β-D-galactopyranoside (Boehringer Mannheim) as a substrate, were used to normalize the transfection efficiency between different studies. DNA cotransfections (Ausubel et al., 1997) were performed in duplicates and repeated at least four times with quantitatively and qualitatively similar results. Luciferase activities were assayed using a Monolight 2010 luminometer (Analytical Luminescence Laboratory, San Diego, Calif.) and D-luciferin substrate (Analytical Luminescence Laboratory) in 100 mM Tris-HCl [pH 7.8], 5 mM ATP, 15 mM MgSO_4, 1 mM dithiothreitol (DTT). For overexpression studies, expression plasmids were transfected for 4 h with Lipofectamin (GIBCO) following the manufacturer's instructions. RNA were harvested 40 h after transfection. […]
The transcriptional activity of Osf2/Cbfa1 was assessed by DNA cotransfection studies. […]

In the next data set the target is His-Cbfa2 (Mus musculus, UniProt Q03347 SEQ:1-451). Description: EMSA. The conditions noted are these: tags: 6xHis (pTrcHis); label: 32P. The method, then: (§1) 5.6.1.3 Generation of Recombinant Fusion Proteins, DNA-binding Assays, and In Vitro Binding Assays For protein production, bacterial cells were induced with 2 mM IPTG, and the fusion proteins were enriched using Ni-NTA agarose resin (Qiagen Chatsworth, Calif.) as per the manufacturer's guidelines. DNA-binding assays were performed with 5 fmol of ^32P-labeled double-stranded OSE2 oligonucleotides, in a buffer containing 20 mM Tris-HCl, pH 8.0, 10 mM NaCl, 3 mM EGTA, 0.05% NP-40, 5 mM DTT, and 2 μg of poly (dI.dC).poly (dI.dC), with equivalent amounts of wild type or mutant proteins. […] The proteins were checked for purity and quantified before use. ^35S-labeled Osf2 and Cbfa2 were synthesized in rabbit reticulocyte lysate using coupled in vitro transcription and translation (TNT kit, Promega). Typically, 100 ng of fusion protein bound to glutathione-agarose beads was used for each assay, while the amount of labeled protein in the assay was determined using fluorography. […]
(§2) Since Cbfβ is also expressed in osteoblasts, the inventors tested if Cbfβ was also a partner for Osf2 using an electrophoretic mobility shift assay (EMSA). […] In contrast, when using His-Cbfa2 protein as a positive control, the inventors always detected heterodimerization with Cbfβ, resulting in a protein-DNA complex of slower mobility (FIG. 18A, compare lanes 3 and 4). […]
(In EMSA bound probe runs differently from free probe, usually more slowly.)

For data set [2], the target named is delta.runt.PST + Cbfb heterodimer (UniProt Q08775;Q08024 Q08775:188-607,Q08024:1-187). The experiment in a line: EMSA; supershifted heterodimer complex. The conditions noted are these: tags: 6xHis (pTrcHis); chain copies: 2 (1:1 heterodimer, inferred); label: 32P.
Source text: FIG. 18A. The QA domain prevents heterodimerization of Osf2 with Cbfβ. EMSA done with labeled double-stranded OSE2 oligonucleotide, and equivalent amounts of the Histidine-tagged wild-type and mutant proteins, in the presence or absence of Cbfβ. The nonspecific band (NS) is indicated by an arrow. Arrowheads indicate the supershifted complexes seen in lanes 4 and 10.
as §1

Data set [3] has as its target His-Cbfa2 + His-Cbfb heterodimer (UniProt Q03347;Q08024 Q03347:1-451,Q08024:1-187). Description: EMSA; slower heterodimer complex. The conditions noted are these: tags: 6xHis on each (pTrcHis); chain copies: 2 (1:1 heterodimer, inferred); label: 32P. The method, then: as §1, §2
The next data set concerns the target OSF2/CBFA1a (Homo sapiens, UniProt Q13950 SEQ:1-521). The experiment in a line: cell_activity; p6OSE2-luc, F9 cells. The conditions noted are these: tags: pCMV expression. As for the experimental part:
FIG. 8B. F9 mouse teratocarcinoma cells were transiently transfected with 5 μg of the reporter plasmid in presence of 5 μg of the indicated expression vector. Values are expressed relative to the basal activity of p6OSE2-luc which was set at 1. Data represent results from 3 independent transfection studies.
The mouse F9 teratocarcinoma cell line was used for the DNA transfection studies. The cells were plated on 10-cm dishes at a density of 5×10^5 cells/dish. Cells were transfected by the calcium phosphate coprecipitation method (Chen and Okayama, 1987), using 5 μg of reporter plasmid, 5 μg of expression plasmid and 2 μg of pRSV/βGal as previously described (Geoffroy et al., 1995). The p6OSE2-luc plasmid containing six copies of the wild-type OSE2 oligonucleotide in front of the −34/+13 mOG2 promoter-luciferase (luc) was used as reporter plasmid (Ducy and Karsenty, 1995). The pCMV-hOSF2/CBFA1a and pCMV-hOSF2/CBFA1b were used as expression plasmids. They contain respectively the full length hOSF2/CBFA1a cDNA and the hOSF2/CBFA1b cDNA lacking exon 8 in correct orientation downstream from the CMV promoter. Luciferase and β-galactosidase activities were assayed as previously described (Geoffroy et at, 1995). […]

Data set [4] addresses T1, Osf2/Cbfa1. The experiment in a line: cell_activity; p910-Opn-luc promoter fragment, F9 cells; deletion of element abolished. To be noted: tags: pCMV5 expression.

T1 sequence (Q08775 80-607): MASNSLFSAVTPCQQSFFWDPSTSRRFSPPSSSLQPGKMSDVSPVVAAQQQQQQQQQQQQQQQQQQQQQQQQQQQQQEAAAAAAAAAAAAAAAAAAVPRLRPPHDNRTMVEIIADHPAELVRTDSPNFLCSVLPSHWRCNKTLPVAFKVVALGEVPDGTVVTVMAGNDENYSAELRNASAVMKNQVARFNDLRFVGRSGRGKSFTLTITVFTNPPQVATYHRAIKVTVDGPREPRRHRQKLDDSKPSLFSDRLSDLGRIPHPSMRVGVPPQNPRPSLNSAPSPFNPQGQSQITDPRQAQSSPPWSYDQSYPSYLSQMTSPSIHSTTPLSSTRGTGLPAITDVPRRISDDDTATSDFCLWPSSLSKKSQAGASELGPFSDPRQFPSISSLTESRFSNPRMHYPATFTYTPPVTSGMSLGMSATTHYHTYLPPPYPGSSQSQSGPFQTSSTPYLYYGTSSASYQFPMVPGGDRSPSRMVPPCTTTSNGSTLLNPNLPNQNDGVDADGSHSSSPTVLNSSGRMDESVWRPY
His-Cbfa2 + His-Cbfb heterodimer, sequence (Q03347 whole entry, chain 1 of 2): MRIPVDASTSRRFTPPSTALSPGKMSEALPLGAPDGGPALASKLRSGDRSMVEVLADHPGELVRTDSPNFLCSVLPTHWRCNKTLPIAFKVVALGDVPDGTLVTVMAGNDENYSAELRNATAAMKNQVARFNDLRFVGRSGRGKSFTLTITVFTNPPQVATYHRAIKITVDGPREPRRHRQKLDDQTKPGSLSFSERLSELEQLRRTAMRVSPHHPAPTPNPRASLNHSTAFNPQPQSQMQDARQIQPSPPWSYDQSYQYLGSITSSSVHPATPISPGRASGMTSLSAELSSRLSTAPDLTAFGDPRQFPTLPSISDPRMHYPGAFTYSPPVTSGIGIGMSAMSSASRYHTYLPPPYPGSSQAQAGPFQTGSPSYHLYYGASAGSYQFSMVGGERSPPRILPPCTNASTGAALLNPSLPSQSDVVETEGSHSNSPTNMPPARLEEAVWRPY
His-Cbfa2 + His-Cbfb heterodimer, sequence (Q08024 whole entry, chain 2 of 2): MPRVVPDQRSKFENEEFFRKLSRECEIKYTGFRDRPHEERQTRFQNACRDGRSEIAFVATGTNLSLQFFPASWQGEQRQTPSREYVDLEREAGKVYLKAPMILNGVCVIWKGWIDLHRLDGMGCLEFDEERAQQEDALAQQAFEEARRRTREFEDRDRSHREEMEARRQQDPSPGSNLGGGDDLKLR
His-Cbfa2, sequence (Q03347 whole entry, the tested form may be a part): as the sequence (Q03347 whole entry, chain 1 of 2) above
OSF2/CBFA1a, sequence (Q13950 whole entry P266H/R267G): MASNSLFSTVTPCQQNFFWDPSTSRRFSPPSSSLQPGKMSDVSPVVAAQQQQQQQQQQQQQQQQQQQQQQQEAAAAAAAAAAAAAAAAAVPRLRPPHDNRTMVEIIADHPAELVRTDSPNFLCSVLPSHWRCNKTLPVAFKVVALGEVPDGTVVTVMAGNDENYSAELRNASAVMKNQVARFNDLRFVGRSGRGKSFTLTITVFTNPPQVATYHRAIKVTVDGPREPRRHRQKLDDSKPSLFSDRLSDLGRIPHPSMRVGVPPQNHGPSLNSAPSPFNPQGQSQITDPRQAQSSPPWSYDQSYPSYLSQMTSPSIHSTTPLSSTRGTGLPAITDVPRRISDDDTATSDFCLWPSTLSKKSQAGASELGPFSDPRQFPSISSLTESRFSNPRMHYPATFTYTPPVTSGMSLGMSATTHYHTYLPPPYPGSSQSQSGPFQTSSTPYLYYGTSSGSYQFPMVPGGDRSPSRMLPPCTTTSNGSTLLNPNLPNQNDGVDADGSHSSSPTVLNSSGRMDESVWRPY
delta.runt.PST + Cbfb heterodimer, sequence (Q08775 188-607, stated change not applied, chain 1 of 2): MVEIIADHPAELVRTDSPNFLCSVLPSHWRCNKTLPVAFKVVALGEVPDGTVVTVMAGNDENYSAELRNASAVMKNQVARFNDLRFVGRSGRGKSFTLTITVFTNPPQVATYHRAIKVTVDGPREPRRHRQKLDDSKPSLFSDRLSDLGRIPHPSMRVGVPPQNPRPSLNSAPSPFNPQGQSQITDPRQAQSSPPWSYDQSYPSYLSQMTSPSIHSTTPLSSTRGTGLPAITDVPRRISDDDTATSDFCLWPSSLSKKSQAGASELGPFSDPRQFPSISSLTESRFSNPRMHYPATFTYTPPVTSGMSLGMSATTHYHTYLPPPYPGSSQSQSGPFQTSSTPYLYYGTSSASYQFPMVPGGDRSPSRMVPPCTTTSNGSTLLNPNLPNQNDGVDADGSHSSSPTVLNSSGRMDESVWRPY
delta.runt.PST + Cbfb heterodimer, sequence (Q08024 whole entry, stated change not applied, chain 2 of 2, the tested form may be a part): as the sequence (Q08024 whole entry, chain 2 of 2) above

B1: Osteocalcin (OG2) OSE2 (dsDNA)
DNA 1: AGCTGCAATCACCAACCACAGCA
DNA 2: TGCTGTGGTTGGTGATTGCAGCT
For B1, the activity is above 70 fold activation with Osf2/Cbfa1 [1] and 75 fold activation with OSF2/CBFA1a. In addition, the binding result (with His-Cbfa2; in data set [2]; in data set [3]) was “binds” each time.

B2: Osteopontin OSE2 (dsDNA)
DNA 1: CGCTCTTTGTGCAAACCACACAG
DNA 2: CTGTGTGGTTTGCACAAAGAGCG
Regarding B2, in the data set with Osf2/Cbfa1 [4], the activity stood at 4 fold activation.
